{"source": "the DeepSol protein solubility set", "data": [{"test": "soluble on expression in E. coli; label from the status in PepcDB or PDB records", "values": [{"sequence": "MPVLHNRISNDELKAKMLAESEPRTTISFYKYFTIASPQQTRDALYQVFTALDVFGRVYLAHEGINAQISVPQSKLETFRQQLYTFDPALDGVRLNIALEDDGKSFWVLRMKVRDRIVADGIDDPTFDASNVGDYLKAADVNAMLDDPDAVFIDMRNHYEYEVGHFENALEIPADTFREQLPKAVEMLREHADKKIVMYCTGGIRCEKASAWMKHNGFNKVWHIEGGIIEYARRARAQGLPVRFIGKNFVFDERMGERISDEVIAHCHQCGASCDSHTNCKNDGCHLLFIQCPQCASKFNGCCSEQCCEELALPEEEQRRRRAGRENGNKIFNKSRGRLNSKLSIPDPAEAAALEHHHHHH", "soluble on expression in E. coli": "soluble"}, {"sequence": "MSLLLSATTSIHDLVTSHPYLIEVLADYAPAFAKLRNPLLRNTLGRVATLQQAADLAGLELTGLMAHLARAIMEHTKEAVTLVPRGAETPAHAVADGDSGCGGCTPRPAEGNTADRATRLATLRALLERLHQGTPLADLKEAFASAVGGISAAEVASLEKELVAGGVAETEIKRLCSLHVDIFREALAPQHVPDMPPGHPVHTYRAENAEATRIADEIISQIDRMRSVPGDTESPLDELAWSFSRRHVADLLADLAHVERHYTRKEMQLFPMLEENGIEAPPKVMWEVHDDIRSLLRKARETVEGPSPVAAATVARDAALAVKDMVDKEETVLFPMALESLTEAQWGRVRHGEDEIGYAWVTPEGEWTPQAADTPESLTMEGAATGTPDRVTLGTGTLTVETLDRMLRTLPLDLSLVDAEDRVAYYTDSTHRIFPRSAGVIGRNVRNCHPPKSVHMVEEILARFKTGERDEAAFWIELGGRFLHIRYFAVRSDEGRYLGCLEVAQDVTDIRALSGQRRLLDWNEGHHHHHH", "soluble on expression in E. coli": "not soluble"}, {"sequence": "MSLGEAEARVVLNMNTGWAFHRGEVESGGQPGLDDSGWIAAIIPHIMQLEKKHCGGDIIYDGVGWYRRTFRVPSQYKDKQIKISFEGVMNACEVYLNGQKISAHRGGYVGFVTDITTRINWDRDNLLAVRVSAEYDPLTPPGKPQAGMDFYYYSGIYRDVEMVISDPLHITHALEEEEVAGGGIFVTYPVVGKEKAVTHVKAHVRNEGKRKRKAQLRTQLIDKSGKIVACQLTPFRLSAGEAIHLEQNLEIVHPSLWHPYDPNLYTLQNEIVENGKVVDCHTESIGIRTIAYTRDGGFYINGESLYLRGANRHQAFAHIGDAAANSMQERDVIDLKRGGCNAVRAAHYPQDPAFLAACDKYGLLVVECIPGWQYFKNDSTFISRLYEVGKQMIRRDRNHPSVILWETALNESRYPAEIARNLYAIAHIEYPGDQMYTAGDYFGHADRVDCFDVFYKQVSRFPKDGDVMSNYPEDQIAVKPLFCREWGDGVGEKPRVSLMENEEEQLKQCRGRFLQLNGHGYFDWCMLDANPRMGGHFLWSYNDYARGAEQETMFCGIVDINRYPKFSYYMMQSMRDKEISQPGLYDGPMVFIASQNTASRYVSSVNEITVFSNCDEVRLFRNHHLIGKQMRKERTPLYRSIVEKGGSPCYVFNAGTYEAGELVAEGIVDGKVVATHSVRTPEQPRQVKIWLKEENIQPVADGSDMIPVYFKVCDSNGTLVNTSDVRIHISVSGEGSLIGDGIERIGINPQLVEGGVGYALIRTTCRPGKIHISVTADGLRGDTREIVTRRYDGEGHHHHHH", "soluble on expression in E. coli": "not soluble"}, {"sequence": "MQGTKIRLMVGGLLLAAASNNVQAEALQPDPAWQQGKLDNGFSWQLLATPQRPSDRIELRLIVNTGSLSENTQEVGFAHLLPRLALMSSASFTPAQLQSLWQQGIDNERPLPPAITSYDFTLYSLSLPNNRPDLLKDALAWLSDTAGNLAVSEQTVNAALNTATDPIATFPQNIQEPWWRYRLKGSSLIGHDPGQPVTQPVDVEKLKQFYQQWYTPDAMTLYVVGNVDSRSIAAQISKAFSELKGKRTAPAAVATLAPLPPEPVSLMNEQAAQDTLSLMWDTPWHPIQDSMALSRYWRSDLAREALFWHIKQVLEKNNQKNLKLGFDCRVQYQRAQCAIHLNTPVENLTANMTFVARELAALRANGLSQAEFDALMTQKNDQLSKLFATYARTDTDILMSQRLRSQQSGVVDIAPEQYQKLRQAFLSGLTLAELNRELKQQLSQDTTLVLMQPKGEPEVNVKALQEIYNGIMAPQTVAEEEVAPAEAVETAPVMPTTAQ", "soluble on expression in E. coli": "not soluble"}, {"sequence": "ASWSHPQFEKGAMSNYSMSRGHSDKCVGAEDILSEIKEAEKVLNAASDELKREGHNVKTFIDRTSTTQSANLNKIVNWHNANPADVHISVHLNAGKGTGVEVWYYAGDEKGRKLAVEISAKMAKALGLPNRGAKATKDLRFLNSTKGTAVLLEVCFVDRKEDANAIHKSGMYDKLGIAIAEGLTGKTVAAKNPNRHSGAVVDSVPMLSKMDFKSSPIKMYKAGSSLLVYEHNKYWYKAYINDKLCYIYKSFCISNGKKDAKGRIKVRIKSAKDLRIPVWNNTKLNSGKIKWYSPGTKLSWYDNKKGYLELWYEKDGWYYTANYFLK", "soluble on expression in E. coli": "soluble"}]}]}
